Data: publication PMC9486512 (Zoological Research, 2022)
Numbering of substitutions follows the chain as printed. Numbers in names are those of the source. Ends that are not written are not given here.

B1: Ca2a H28R (peptide)
peptide: ACLGFGEKCNPSNDKCCKSSSLVCSQKRKWCKYDL
B2: Ca2a H28K (peptide)
peptide: B1 peptide with R28K
B3: Ca2a Y33K (peptide)
peptide: B1 peptide with R28H, Y33K
B4: Ca2a F5K (peptide)
peptide: B1 peptide with F5K, R28H
B5: Ca2a W30K (peptide)
peptide: B1 peptide with R28H, W30K
B6: Ca2a K27A (peptide)
peptide: B1 peptide with K27A, R28H
B7: Ca2a K32A (peptide)
peptide: B1 peptide with R28H, K32A
B8: truncated peptide T1 (from Ca2a) (peptide)
peptide: CLGFGEKCCCKSSSLVCSQKHKWCKY
B9: truncated peptide T9 (from Ca2a) (peptide)
peptide: CLGFGEKCNPSNDCCKSSSLVCSQKHKWCKY
B10: truncated peptide T11 (from Ca2a) (peptide)
peptide: B9 peptide with N12D, D13K
B11: truncated peptide T10 (from Ca2a) (peptide)
peptide: B9 peptide with D13K
B12: truncated peptide T2 (from Ca2a) (peptide)
peptide: CLGFGEKCNPSKCCKSLVCQKHKWCKY
B13: truncated peptide T12 (from Ca2a) (peptide)
peptide: CLGFGEKCNPDCCKLVCSQKWCKY
B14: truncated peptide T7 (from Ca2a) (peptide)
peptide: CLGFGEKCNPSDKCCKSSSVCSQKHKWCKY
B15: truncated peptide T6 (from Ca2a) (peptide)
peptide: CLGFGEKCNDKCCKSSSVCSQKHKWCKY
B16: truncated peptide T13 (from Ca2a) (peptide)
peptide: CLGFGEKCNDKCCKLVCSQHKWCKY
B17: truncated peptide T3 (from Ca2a) (peptide)
peptide: CLGFGEKCNNDKCCKSLVCQKHKWCKY
B18: truncated peptide T8 (from Ca2a) (peptide)
peptide: CLGFGEKCPSNDKCCSSSLVCSQKHKWCKY
B19: truncated peptide T5 (from Ca2a) (peptide)
peptide: CLGFGEKCNDKCCKSSSLCSQKHKWCKY
B20: truncated peptide T4 (from Ca2a) (peptide)
peptide: CLGFGEKCNDKCCKSSSCSQKHKWCKY

target: human voltage-gated sodium ion channel Nav1.7 (human); experiment: not given; settings: not given
Sequence (Q15858 whole entry): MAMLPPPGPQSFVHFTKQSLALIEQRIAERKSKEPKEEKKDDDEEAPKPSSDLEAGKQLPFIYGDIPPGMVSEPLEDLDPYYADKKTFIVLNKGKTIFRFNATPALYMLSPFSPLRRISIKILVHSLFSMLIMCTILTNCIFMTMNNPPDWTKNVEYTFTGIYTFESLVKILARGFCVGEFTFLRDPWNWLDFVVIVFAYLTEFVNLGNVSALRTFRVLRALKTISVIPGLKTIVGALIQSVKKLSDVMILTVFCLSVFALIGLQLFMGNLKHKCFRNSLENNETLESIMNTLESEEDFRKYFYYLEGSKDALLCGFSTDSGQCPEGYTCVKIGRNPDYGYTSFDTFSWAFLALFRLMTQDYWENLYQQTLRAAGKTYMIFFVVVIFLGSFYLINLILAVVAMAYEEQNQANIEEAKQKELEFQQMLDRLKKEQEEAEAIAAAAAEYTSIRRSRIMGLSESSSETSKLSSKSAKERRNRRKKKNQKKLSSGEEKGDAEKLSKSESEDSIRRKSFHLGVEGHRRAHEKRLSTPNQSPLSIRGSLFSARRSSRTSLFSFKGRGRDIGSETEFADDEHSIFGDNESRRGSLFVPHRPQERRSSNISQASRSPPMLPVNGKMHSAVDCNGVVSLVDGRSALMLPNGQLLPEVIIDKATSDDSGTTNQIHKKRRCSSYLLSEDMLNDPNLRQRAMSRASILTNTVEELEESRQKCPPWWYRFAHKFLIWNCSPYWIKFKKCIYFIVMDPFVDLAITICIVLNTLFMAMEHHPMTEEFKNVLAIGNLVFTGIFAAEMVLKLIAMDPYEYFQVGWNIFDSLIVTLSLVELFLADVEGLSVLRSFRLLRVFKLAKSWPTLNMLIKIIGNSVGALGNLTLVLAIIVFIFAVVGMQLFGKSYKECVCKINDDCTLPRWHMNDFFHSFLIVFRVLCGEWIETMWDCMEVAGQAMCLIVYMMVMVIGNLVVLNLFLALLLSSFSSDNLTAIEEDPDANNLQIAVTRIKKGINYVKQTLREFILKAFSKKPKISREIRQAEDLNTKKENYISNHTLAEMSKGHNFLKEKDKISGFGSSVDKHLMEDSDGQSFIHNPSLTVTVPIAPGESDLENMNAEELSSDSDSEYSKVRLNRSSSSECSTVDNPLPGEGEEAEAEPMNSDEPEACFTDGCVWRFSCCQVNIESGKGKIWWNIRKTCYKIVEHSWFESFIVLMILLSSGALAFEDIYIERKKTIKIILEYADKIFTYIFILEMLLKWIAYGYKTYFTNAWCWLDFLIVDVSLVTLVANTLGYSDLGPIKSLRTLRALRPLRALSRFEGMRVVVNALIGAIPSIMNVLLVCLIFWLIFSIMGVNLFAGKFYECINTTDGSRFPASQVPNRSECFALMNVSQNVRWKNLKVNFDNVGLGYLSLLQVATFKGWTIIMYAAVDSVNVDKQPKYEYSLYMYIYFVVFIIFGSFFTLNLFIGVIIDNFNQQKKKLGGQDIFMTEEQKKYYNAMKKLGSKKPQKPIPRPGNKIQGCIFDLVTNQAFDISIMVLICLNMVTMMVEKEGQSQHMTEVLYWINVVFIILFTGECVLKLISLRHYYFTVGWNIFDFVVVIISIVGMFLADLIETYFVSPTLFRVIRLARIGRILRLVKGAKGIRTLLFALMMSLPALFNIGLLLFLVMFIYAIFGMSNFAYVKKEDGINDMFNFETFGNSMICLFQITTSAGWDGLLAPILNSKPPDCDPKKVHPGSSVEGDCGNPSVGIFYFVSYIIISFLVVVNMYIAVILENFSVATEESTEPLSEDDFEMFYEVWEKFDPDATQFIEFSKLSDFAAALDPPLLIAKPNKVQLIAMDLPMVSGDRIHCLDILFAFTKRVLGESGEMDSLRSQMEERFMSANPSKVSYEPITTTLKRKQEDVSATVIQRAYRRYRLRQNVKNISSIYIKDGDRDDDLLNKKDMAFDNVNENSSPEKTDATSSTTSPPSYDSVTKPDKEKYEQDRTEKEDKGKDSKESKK

| Molecule | IC50 of inhibition of hNav1.7 currents, whole-cell patch clamp, HEK293T |
| --- | --- |
| B1 | 14.9 µM |
| B2 | > 20 µM |
| B3 | > 20 µM |
| B4 | > 20 µM |
| B5 | > 20 µM |

target: human voltage-gated sodium ion channel Nav1.7 (human); experiment: not given; settings: not given; remark: another data set of the same source

| Molecule | IC50 of inhibition of hNav1.7 currents, whole-cell patch clamp, HEK293T |
| --- | --- |
| B6 | 4.07 µM |
| B7 | > 30 µM |

target: human Nav1.7 (hNav1.7) channel (Homo sapiens, UniProt Q15858); experiment: Whole-cell patch-clamp inhibition of hNav1.7 currents; type: cell-based; settings: compared to Ca2a, WT hNav1.7 in HEK293T
Sequence (Q15858 whole entry): as above

| Molecule | inhibitory activity against Nav1.7 (in words) |
| --- | --- |
| K18A: K18A mutant of Ca2a (ACLGFGEKCNPSNDKCCASSSLVCSQKHKWCKYDL; ends and bridges not checked; cysteine pairing not given here) [Peptide K18A] | retained most of its inhibitory activity |

same assay, conditions: ratio of mutant IC50 to WT peptide IC50, hNav1.7 in HEK293T

| Molecule | fold change in IC50 / affinity for Nav1.7 compared to WT Ca2a |
| --- | --- |
| W30A: W30A mutant of Ca2a (ACLGFGEKCNPSNDKCCKSSSLVCSQKHKACKYDL; ends and bridges not checked; cysteine pairing not given here) [Peptide W30A] | 20 fold |

target: human voltage-gated sodium ion channel Nav1.7 (human); experiment: not given; settings: not given; remark: another data set of the same source

| Molecule | IC50 of inhibition of hNav1.7 currents, whole-cell patch clamp, HEK293T |
| --- | --- |
| B8 | 14.7 µM |
| B9 | 67.3 µM |
| B10 | 49.2 µM |
| B11 | 53.5 µM |
| B12 | 16.5 µM |
| B13 | > 50 µM |
| B14 | > 100 µM |
| B15 | > 100 µM |
| B16 | 8.89 µM |
| B17 | 39.6 µM |
| B18 | > 100 µM |
| B19 | > 100 µM |
| B20 | > 100 µM |
